Literature values as cited in paper PMC7226360.
pKd: −log10 of the molar value.

Biological target: NEDD8 (Homo sapiens) (UniProt Q15843)
Sequence (Q15843 1-76): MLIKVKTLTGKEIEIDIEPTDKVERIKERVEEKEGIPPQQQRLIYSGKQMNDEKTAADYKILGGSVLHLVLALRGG

Chain of KHNYN 627-678 (O15037 627-678): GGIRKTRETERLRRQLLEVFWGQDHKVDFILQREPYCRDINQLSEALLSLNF

Substance: KHNYN 627-678 (from UniProt O15037)
- pKd: 4.62
